Measurements published in article PMC7316778 (Nature Communications, 2020).

Tests used:
Assay in all cases: PamChip microarray peptide phosphorylation
LYN = LYN (Homo sapiens, UniProt P07948); settings: peptide substrate phosphorylated by LYN
ABL1 = ABL1 (Homo sapiens, UniProt P00519); settings: peptide substrate phosphorylated by ABL1
FGR = FGR (Homo sapiens, UniProt P09769); settings: peptide substrate phosphorylated by FGR
SYK = SYK (Homo sapiens, UniProt P43405); settings: peptide substrate phosphorylated by SYK
FES^WT = molecular target: T1, FES^WT (Homo sapiens, UniProt P07332); type: biochemical; settings: peptide substrate phosphorylated by FES - WT
T1 construct: human FES cDNA encoding residues 448–822 or human FER cDNA encoding residues 448–820 was amplified by PCR; made in house; host or cells: E. coli BL21(DE3), co-expressing YopH phosphatase

CSK = CSK (Homo sapiens, UniProt P41240); settings: peptide substrate phosphorylated by CSK
Chain of CSK (P41240 whole entry): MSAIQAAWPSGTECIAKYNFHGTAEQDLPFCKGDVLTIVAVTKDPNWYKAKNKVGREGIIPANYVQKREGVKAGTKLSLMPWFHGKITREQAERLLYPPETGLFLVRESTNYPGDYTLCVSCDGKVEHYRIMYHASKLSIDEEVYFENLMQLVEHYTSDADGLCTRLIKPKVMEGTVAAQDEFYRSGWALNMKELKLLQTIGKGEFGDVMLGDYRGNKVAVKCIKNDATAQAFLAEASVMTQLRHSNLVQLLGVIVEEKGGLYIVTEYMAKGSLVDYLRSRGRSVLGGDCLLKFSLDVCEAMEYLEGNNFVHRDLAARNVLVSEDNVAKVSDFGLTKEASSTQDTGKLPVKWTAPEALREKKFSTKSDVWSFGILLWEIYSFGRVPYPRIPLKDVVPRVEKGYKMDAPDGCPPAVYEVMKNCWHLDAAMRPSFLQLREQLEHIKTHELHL

T1 sequence (P07332 448-822): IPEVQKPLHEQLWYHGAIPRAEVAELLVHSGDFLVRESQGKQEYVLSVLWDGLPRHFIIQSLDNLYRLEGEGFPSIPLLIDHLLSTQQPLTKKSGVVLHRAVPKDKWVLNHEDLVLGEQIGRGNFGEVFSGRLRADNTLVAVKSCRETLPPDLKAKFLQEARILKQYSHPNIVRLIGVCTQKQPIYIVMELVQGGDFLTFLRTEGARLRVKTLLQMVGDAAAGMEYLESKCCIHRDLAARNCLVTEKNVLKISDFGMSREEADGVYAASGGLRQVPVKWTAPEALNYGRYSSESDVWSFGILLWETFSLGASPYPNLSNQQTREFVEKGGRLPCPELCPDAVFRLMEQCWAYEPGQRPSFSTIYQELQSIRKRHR
Chain of LYN (P07948 whole entry): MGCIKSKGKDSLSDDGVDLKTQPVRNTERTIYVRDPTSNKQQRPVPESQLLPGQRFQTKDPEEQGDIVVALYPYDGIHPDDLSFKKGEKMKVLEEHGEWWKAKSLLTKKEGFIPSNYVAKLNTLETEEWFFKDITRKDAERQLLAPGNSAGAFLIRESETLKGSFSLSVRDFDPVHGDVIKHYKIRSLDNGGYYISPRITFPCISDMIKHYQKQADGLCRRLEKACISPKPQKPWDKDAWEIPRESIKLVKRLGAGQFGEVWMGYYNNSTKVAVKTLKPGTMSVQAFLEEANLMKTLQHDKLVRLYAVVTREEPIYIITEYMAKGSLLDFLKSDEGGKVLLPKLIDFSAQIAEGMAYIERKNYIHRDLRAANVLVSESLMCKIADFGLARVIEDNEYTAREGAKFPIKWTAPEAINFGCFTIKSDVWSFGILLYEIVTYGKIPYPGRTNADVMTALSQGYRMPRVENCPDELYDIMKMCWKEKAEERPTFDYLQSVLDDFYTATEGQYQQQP
Chain of ABL1 (P00519 whole entry): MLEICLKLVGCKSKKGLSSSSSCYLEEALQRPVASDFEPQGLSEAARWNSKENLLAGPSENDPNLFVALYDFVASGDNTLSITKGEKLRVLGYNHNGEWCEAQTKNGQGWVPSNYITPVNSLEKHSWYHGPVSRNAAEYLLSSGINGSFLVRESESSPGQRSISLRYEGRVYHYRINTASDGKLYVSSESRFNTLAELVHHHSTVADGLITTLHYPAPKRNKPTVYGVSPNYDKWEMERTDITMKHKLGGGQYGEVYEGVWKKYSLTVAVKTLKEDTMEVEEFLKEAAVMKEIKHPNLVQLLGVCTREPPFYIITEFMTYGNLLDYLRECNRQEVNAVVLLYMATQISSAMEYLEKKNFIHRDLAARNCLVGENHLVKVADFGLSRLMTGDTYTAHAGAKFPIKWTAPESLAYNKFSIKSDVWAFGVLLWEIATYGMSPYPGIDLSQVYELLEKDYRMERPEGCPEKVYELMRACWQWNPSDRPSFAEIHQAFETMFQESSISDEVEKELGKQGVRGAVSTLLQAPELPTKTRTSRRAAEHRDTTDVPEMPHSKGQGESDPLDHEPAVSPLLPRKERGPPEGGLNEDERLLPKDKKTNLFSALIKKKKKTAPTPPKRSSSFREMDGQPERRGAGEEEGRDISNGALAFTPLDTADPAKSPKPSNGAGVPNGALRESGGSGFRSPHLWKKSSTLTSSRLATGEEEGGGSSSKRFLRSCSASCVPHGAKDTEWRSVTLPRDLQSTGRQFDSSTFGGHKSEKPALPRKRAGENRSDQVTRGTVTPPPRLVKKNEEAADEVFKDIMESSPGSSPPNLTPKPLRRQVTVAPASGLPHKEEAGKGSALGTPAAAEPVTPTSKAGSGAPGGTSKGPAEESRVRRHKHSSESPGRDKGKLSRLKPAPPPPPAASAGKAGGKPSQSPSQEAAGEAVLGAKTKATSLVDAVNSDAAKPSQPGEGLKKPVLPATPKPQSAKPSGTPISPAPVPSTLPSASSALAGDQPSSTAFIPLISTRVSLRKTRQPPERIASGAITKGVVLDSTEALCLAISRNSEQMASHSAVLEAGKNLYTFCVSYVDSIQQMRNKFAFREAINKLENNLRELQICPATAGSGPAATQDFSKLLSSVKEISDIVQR

Substance	Relative phosphorylation (% of highest signal) (LYN)	Relative phosphorylation (% of highest signal) (ABL1)	Relative phosphorylation (% of highest signal) (FGR)	Relative phosphorylation (% of highest signal) (SYK)	Relative phosphorylation (% of highest signal) (FES^WT)	Relative phosphorylation (% of highest signal) (CSK)
VGFR2_1207_1219_C1208S (VSDPKFHYDNTAG; UniProt P35968 1207-1219, looked up, variant C1208S)	-0.213 % of highest signal	-0.742 % of highest signal	-0.6 % of highest signal	-1.4 % of highest signal	0.5 % of highest signal	-1.4 % of highest signal
VGFR1_1046_1058_Y1048F (DIFKNPDYVRKGD; UniProt P17948 1046-1058, looked up, variant Y1048F)	-0.0478 % of highest signal	-0.449 % of highest signal	-2.7 % of highest signal	1.1 % of highest signal	-0.452 % of highest signal	-0.9 % of highest signal
VGFR2_989_1001 (EEAPEDLYKDFLT; UniProt P35968 989-1001, looked up, fragment)	2.8 % of highest signal	2.3 % of highest signal	21.5 % of highest signal	15.3 % of highest signal	10.0 % of highest signal	30.5 % of highest signal
VGFR1_1049_1061 (KNPDYVRKGDTRL; UniProt P17948 1049-1061, looked up, fragment)	-0.274 % of highest signal	-0.36 % of highest signal	-2.4 % of highest signal	-0.167 % of highest signal	-0.333 % of highest signal	-0.8 % of highest signal
MK01_198_210 (IMLNSKGYTKSID; UniProt P28482 198-210, looked up, fragment)	-0.184 % of highest signal	-0.5 % of highest signal	-3.8 % of highest signal	-1.2 % of highest signal	-0.6 % of highest signal	-0.8 % of highest signal
STAT1_694_706 (DGPKGTGYIKTEL; UniProt P42224 694-706, looked up, fragment)	-0.0105 % of highest signal	-0.6 % of highest signal	-3.3 % of highest signal	-1.9 % of highest signal	-0.5 % of highest signal	-1.4 % of highest signal
VGFR1_1206_1218 (GSSDDVRYVNAFK; UniProt P17948 1206-1218, looked up, fragment)	-0.1 % of highest signal	0.0233 % of highest signal	-1.0 % of highest signal	-0.354 % of highest signal	-0.0198 % of highest signal	-0.459 % of highest signal
AMPE_5_17 (EREGSKRYCIQTK; UniProt Q07075 5-17, looked up, fragment)	0.114 % of highest signal	-0.436 % of highest signal	-1.5 % of highest signal	-1.8 % of highest signal	-0.1 % of highest signal	-0.745 % of highest signal
PERI_458_470 (QRSELDKSSAHSY; UniProt P41219 458-470, looked up, fragment)	-0.0931 % of highest signal	-0.4 % of highest signal	-1.2 % of highest signal	-1.3 % of highest signal	-0.5 % of highest signal	-0.632 % of highest signal
NPT2A_501_513 (AKALGKRTAKYRW; UniProt Q06495 501-513, looked up, fragment)	-0.318 % of highest signal	-0.2 % of highest signal	-2.1 % of highest signal	-0.846 % of highest signal	0.553 % of highest signal	-0.4 % of highest signal
EPHA4_921_933 (QAIKMDRYKDNFT; UniProt P54764 921-933, looked up, fragment)	-0.126 % of highest signal	-0.327 % of highest signal	-1.7 % of highest signal	-0.4 % of highest signal	-0.348 % of highest signal	-0.535 % of highest signal
NTRK2_509_521 (PVIENPQYFGITN; UniProt Q16620 509-521, looked up, fragment)	0.113 % of highest signal	-0.0217 % of highest signal	-1.0 % of highest signal	0.0821 % of highest signal	-0.566 % of highest signal	-0.422 % of highest signal
EFS_246_258_Y253F (GGTDEGIFDVPLL; UniProt O43281 246-258, looked up, fragment Y253F)	-0.264 % of highest signal	-0.5 % of highest signal	-4.8 % of highest signal	-1.2 % of highest signal	-0.634 % of highest signal	-0.6 % of highest signal
MBP_263_275 (GRASDYKSAHKGF; UniProt P02686 263-275, looked up, fragment)	-0.172 % of highest signal	-0.13 % of highest signal	-0.9 % of highest signal	-0.355 % of highest signal	-0.25 % of highest signal	-0.5 % of highest signal
ZAP70_485_497 (ALGADDSYYTARS; UniProt P43403 485-497, looked up, fragment)	1.0 % of highest signal	-0.0741 % of highest signal	7.8 % of highest signal	10.4 % of highest signal	3.5 % of highest signal	0.277 % of highest signal
DDR1_506_518 (LLLSNPAYRLLLA; UniProt Q08345 506-518, looked up, fragment)	-1.0 % of highest signal	-1.4 % of highest signal	-6.2 % of highest signal	-3.9 % of highest signal	-0.4 % of highest signal	-1.7 % of highest signal
VINC_815_827 (KSFLDSGYRILGA; UniProt P18206 815-827, looked up, fragment)	-0.3 % of highest signal	1.1 % of highest signal	-2.6 % of highest signal	-1.0 % of highest signal	0.223 % of highest signal	-0.442 % of highest signal
ODBA_340_352_D340K (KDSSAYRSVDEVN; UniProt P12694 340-352, looked up, variant D340K)	0.112 % of highest signal	5.2 % of highest signal	-0.358 % of highest signal	1.5 % of highest signal	-0.457 % of highest signal	10.4 % of highest signal
